Results: article PMC10048814
Residue numbers refer to the chain shown, from its start.

Assays:
Test in all cases: fluorescence polarization
Settings in all cases: 50 mM HEPES-KOH pH 7.5, 10 mM potassium acetate, 2 mM beta-mercaptoethanol, 0.1 mg/mL BSA, 5 mM MgCl2, 2 nM DNA, temperature not stated
[1] = target: T1, pol eta core S296F S296F (Homo sapiens) (UniProt Q9Y253)
T1 sequence: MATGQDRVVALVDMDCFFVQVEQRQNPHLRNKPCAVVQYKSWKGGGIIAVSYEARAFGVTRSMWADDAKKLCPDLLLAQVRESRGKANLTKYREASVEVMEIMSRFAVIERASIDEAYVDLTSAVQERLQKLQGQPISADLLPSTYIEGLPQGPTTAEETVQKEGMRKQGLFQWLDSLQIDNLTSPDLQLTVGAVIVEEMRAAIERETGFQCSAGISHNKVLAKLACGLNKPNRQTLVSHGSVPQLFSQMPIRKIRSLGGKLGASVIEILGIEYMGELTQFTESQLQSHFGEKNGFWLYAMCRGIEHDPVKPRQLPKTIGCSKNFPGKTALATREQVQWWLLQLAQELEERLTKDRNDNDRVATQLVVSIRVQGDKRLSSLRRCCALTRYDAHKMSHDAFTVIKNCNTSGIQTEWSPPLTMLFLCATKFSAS

[2] = target: T2, pol eta core R334G R334G (Homo sapiens) (UniProt Q9Y253)
T2 sequence: T1 sequence with F296S, R334G

[3] = target: T3, pol eta core R167Q R167Q (Homo sapiens) (UniProt Q9Y253)
T3 sequence: T1 sequence with R167Q, F296S

[4] = target: T4, pol eta core T329I T329I (Homo sapiens) (UniProt Q9Y253)
T4 sequence: T1 sequence with F296S, T329I

[5] = target: T5, DNA polymerase eta core, wild-type (Homo sapiens) (UniProt Q9Y253)
T5 sequence: T1 sequence with F296S

[6] = target: T6, pol eta core I272T I272T (Homo sapiens) (UniProt Q9Y253)
T6 sequence: T1 sequence with I272T, F296S

[7] = target: T7, pol eta core G209V G209V (Homo sapiens) (UniProt Q9Y253)
T7 sequence: T1 sequence with G209V, F296S

[8] = target: T8, pol eta core I147N I147N (Homo sapiens) (UniProt Q9Y253)
T8 sequence: T1 sequence with I147N, F296S

[9] = target: T9, pol eta core C34W C34W (Homo sapiens) (UniProt Q9Y253)
T9 sequence: T1 sequence with C34W, F296S

[10] = cis-syn cyclobutane thymine dimer at T7-T8 of the 25-mer template

Row | Sequence | Kd [1, 10] | Kd [2, 10] | Kd [3, 10] | Kd [4, 10] | Kd [5, 10] | Kd [6, 10] | Kd [7, 10] | Kd [8, 10] | Kd [9, 10] | Kd [1] | Kd [2] | Kd [3] | Kd [4] | Kd [5] | Kd [6] | Kd [7] | Kd [8] | Kd [9]
1 | CACCATCCACTAC / ATGTAGTTGTAGTGGATGGTGGTAC [13-FAM-mer/25-CTD-mer] | 14 nM | 12 nM | 18 nM | 5.9 nM | 11 nM | 11 nM | 11 nM | 7 nM | 5.9 nM |  |  |  |  |  |  |  |  | 
2 | CACCATCCACTAC / ATGTAGTTGTAGTGGATGGTGGTAC [13-FAM-mer/25-TT-mer] |  |  |  |  |  |  |  |  |  | 10 nM | 11 nM | 9.5 nM | 5 nM | 10 nM | 8.5 nM | 8.4 nM | 6.7 nM | 6.1 nM
